# B1: human irisin (FNDC5 residues 32-143) (natural protein, UniProt Q8NAU1 80-191, looked up)
# chain: DSPSAPVNVTVRHLKANSAVVSWDVLEDEVVIGFAISQQKKDVRMLRFIQEVNTTTRSCALWDLEEDTEYIVHVQAISIQGQSPASEPVLFKTPREAEKMASKNKDEVTMKE
# notes: irisin, human FNDC5 residues 32-143
# Molecular target: the molecule itself
# Assay: SEC; analytical size-exclusion chromatography of refolded irisin; apparent molecular weight 28 kDa
protein,measurement,value
B1,stoichiometry N,2

# Source: article PMC4726114, “DSF Guided Refolding As A Novel Method Of Protein Production” (Scientific Reports, 2016)
